According to patent publication US20240368301A1 (HANGZHOU JIUYUAN GENE ENGINEERING, published 2024):
Like-named read-outs stand apart in the source and are kept apart here. Each block holds one binder with its values, some of them ahead of it.

What was measured:
[1] = target: T1, SIRPγ on cells (Jurkat cells) (UniProt Q9P1W8 29-387); assay: FACS titration on SIRPγ-carrying cells, goat anti-hIgG-AF488 (panel SIRPγ)
T1 construct: whole, on cells

[2] = target: T2, SIRPα-V1 on 293T-SIRPα-V1 cells (human, UniProt P78324 31-504); assay: FACS titration on 293T-SIRPα-V1 cells, goat anti-hIgG-AF488 (panel SIRPα-V1)
T2 construct: Stably transfected cell line
Experimental: (§1) After washing, cells were stained by 0.2 μg of goat anti-hIgG-AF488 at 4° C. for 30 min, resuspended in […] of DPBS/1% FBS, and analyzed by FlowJo V10 and GraphPad Prism6 software.

[3] = target: T3, SIRPα-V8 on stably transfected cells (Homo sapiens (Human), UniProt P78324 31-504); assay: FACS titration on 293T-SIRPα-V8 cells, goat anti-hIgG-AF488 (panel SIRPα-V8)
T3 construct: also called CHOZN-SIRPα-V8; 293T-SIRPα-V8
Experimental: as §1

[4] = target: T4, SIRPα V1-his (ACRO, Cat #SIA-H5225) (human, UniProt P78324 31-370); assay: ELISA: coated SIRPα-V1-his, antibody titrated, goat anti-hIgG Fc HRP (panel SIRPα-V1)
T4 construct: not shown: His tag
Experimental: (§2) 100 μL of 1 μg/mL of SIRPα-V1-his, SIRPα-V2-his and SIRPα-V8-his (Sino Biological, Cat #30015-H08H) were coated overnight at 4° C. in Maxisorp ELISA 96-well plates. […] After washing, 100 μL of 1:5000 dilution of goat Anti-hIgG Fc HRP (Invitrogen, Cat #A18823) was added to each well and incubated for 1 h. TMB substrate was used for color development and enzyme marker readings.

[5] = target: T5, SIRPα-V8-his (Sino Biological, Cat #30015-H08H); assay: ELISA: coated SIRPα-V8-his, antibody titrated, goat anti-hIgG Fc HRP (panel SIRPα-V8)
T5 construct: The His tag belongs to the same chain; not shown: exact C-terminal limit of the vendor's construct
Experimental: as §2

[6] = target: T6, cynomolgus macaques SIRPα-his (ACRO, Cat #SIA-C52H7) (cynomolgus macaque, UniProt A0A2K5VYQ9 31-369); assay: ELISA: coated cynomolgus macaques SIRPα-his, antibody titrated, goat anti-hIgG Fc HRP (left panel)
T6 construct: also called Monkey SIRPα; cynomolgus macaque SIRPα
T6 sequence: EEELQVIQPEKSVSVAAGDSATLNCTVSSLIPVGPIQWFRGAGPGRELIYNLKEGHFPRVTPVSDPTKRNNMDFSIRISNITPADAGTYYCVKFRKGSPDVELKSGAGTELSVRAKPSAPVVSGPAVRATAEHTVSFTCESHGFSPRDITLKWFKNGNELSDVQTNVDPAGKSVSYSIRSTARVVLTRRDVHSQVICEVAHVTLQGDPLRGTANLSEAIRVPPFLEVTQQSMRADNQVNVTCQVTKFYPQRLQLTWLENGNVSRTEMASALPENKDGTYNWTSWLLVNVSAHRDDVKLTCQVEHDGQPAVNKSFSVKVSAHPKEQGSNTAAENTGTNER
Experimental: 100 μL of 1 μg/mL of cynomolgus macaques SIRPα-his were coated overnight at 4° C. in Maxisorp ELISA 96-well plates. […] After washing, each well was incubated with 100 μL of 1:5000-fold diluted goat anti-hIgG Fc HRP for 1 h at 37° C. and then substrate TMB, and read by an enzyme marker.

[7] = target: T2, SIRPα-V1 on 293T-SIRPα-V1 cells; assay: competition FACS: 293T-SIRPα-V1 cells, antibody titrated against CD47-FITC, % of blocking (panel SIRPα-V1-CD47)
Experimental: (§3) After washing, cells were analyzed by utilizing FlowJo V10 and GraphPad Prism6 software.

[8] = target: T3, SIRPα-V8 on stably transfected cells; assay: competition FACS: 293T-SIRPα-V8 cells, antibody titrated against CD47-FITC, % of blocking (panel SIRPα-V8-CD47)
Experimental: as §3

[9] = target: T7, SIRPα-V2 on CHOZN-SIRPα-V2 cells (Homo sapiens (Human), UniProt P78324 31-504); assay: competition FACS: CHOZN-SIRPα-V2 cells, antibody titrated against CD47-FITC, % of blocking (panel SIRPα-V2-CD47)
Experimental: as §3

[10] = target: T4, SIRPα V1-his (ACRO, Cat #SIA-H5225); assay: competition ELISA: coated SIRPα-V1-his, antibody titrated against biotin-CD47, streptavidin-HRP (panel SIRPα-V1-CD47)
Experimental: 100 μL of 1 μg/mL of recombinant SIRPα-V1-his and SIRPα-V2-his were coated overnight at 4° C. in Maxisorp ELISA 96-well plates. […] After washing, each well was added with 0.2 μg Streptavidin-HRP, substrate TMB, and read by an enzyme marker.

[11] = target: T4, SIRPα V1-his (ACRO, Cat #SIA-H5225); assay: BLI (ForteBio Octet RED 96): SIRPα V1-his on Ni-NTA biosensor, antibody in a 1:2 series of 7 concentrations (row SIRPα-V1)
Experimental: 5 μg/mL SIRPα V1-his and SIRPα V2-his was loaded to a Ni-NTA biosensor for 600 s, respectively. […] The binding time was 200 s and the dissociation time was 600 s. The data were fitted to calculate the affinity.

[12] = target: T2, SIRPα-V1 on 293T-SIRPα-V1 cells; assay: FACS titration on 293T-SIRPα-V1 cells, goat anti-hIgG-AF488 (panel SIRPα-V1); remark: listed apart in the source
Experimental: (§4) 2×10⁵ per well of stable transfer construct cell lines 293T-SIRPα-V1 (SEQ ID NO: 2), CHOZN-SIRPα-V2 (SEQ ID NO: 38), and CHOZN-SIRPα-V8 (SEQ ID NO: 39) in logarithmic phase were dispended in 96-well U-shaped culture plates, […] After washing, the cells were incubated with 0.2 μg of goat anti-hIgG-AF488 for 30 min at 4° C., then resuspended in 50 μL of DPBS/1% FBS and analyzed by flow cytometry with FlowJo V10 and GraphPad Prism6 software.

[13] = target: T3, SIRPα-V8 on stably transfected cells; assay: FACS titration on CHOZN-SIRPα-V8 cells, goat anti-hIgG-AF488 (panel SIRPα-V8)
Experimental: as §4

[14] = target: T4, SIRPα V1-his (ACRO, Cat #SIA-H5225); assay: ELISA
[15] = target: T8, SIRPβ-his (Novoprotein, Cat #CS93) (UniProt O00241 30-371, limits assumed); assay: ELISA
[16] = target: T3, SIRPα-V8 on stably transfected cells; assay: FACS on cells carrying the target
Experimental: (§5) After washing, cells were stained with 0.2 μg goat anti-hIgG Fc-AF488 (Jackson ImmunoResearch, Cat #109-546-170) at 4° C. for 30 min. After washing again, cells were resuspended in 50 μL of DPBS/1% FBS and analyzed by FlowJo V10 and GraphPad Prism6 software.

[17] = target: T2, SIRPα-V1 on 293T-SIRPα-V1 cells; assay: FACS on cells carrying the target
Experimental: as §5

[18] = target: T7, SIRPα-V2 on CHOZN-SIRPα-V2 cells; assay: FACS on cells carrying the target
Experimental: as §5

[19] = target: T4, SIRPα V1-his (ACRO, Cat #SIA-H5225); assay: BLI (Octet RED 96), His-tagged antigen on Ni-NTA sensor, antibody in solution
Experimental: (§6) SIRPα V1-his (ACRO, Cat #SIA-H5225), SIRPα V2-his (made by transient transfection of HEK293F cells according to SEQ ID NO:38 sequence), SIRPβ-his (Novoprotein, Cat #CS93), SIRPγ-his (Sino Biological, Cat #11828-H08H) or cynomolgus macaques SIRPα-his (ACRO, Cat #SIA-C52H7) at 5 μg/mL was loaded to a Ni-NTA biosensor for 600 s. […] The data were fitted to calculate the affinity.

[20] = target: T9, SIRPα V2-his (made by transient transfection of HEK293F cells according to SEQ ID NO:38) (Homo sapiens (Human), UniProt P78324 31-373); assay: as above
T9 construct: it is the full-length precursor, starting with MEPAG... and including the transmembrane and cytoplasmic parts; not shown: His tag
Experimental: as §6

[21] = target: T8, SIRPβ-his (Novoprotein, Cat #CS93); assay: as above
Experimental: as §6

[22] = target: SIRPγ-his (Sino Biological, Cat #11828-H08H) (UniProt Q9P1W8 29-360); assay: as above
Experimental: as §6

[23] = target: T4, SIRPα V1-his (ACRO, Cat #SIA-H5225); assay: competition ELISA: coated SIRPα-V1-his, antibody titrated against biotin-CD47, streptavidin-HRP (panel SIRPα-V1-CD47); remark: listed apart in the source
[24] = target: T9, SIRPα V2-his (made by transient …); assay: competition ELISA: coated SIRPα-V2-his, antibody titrated against biotin-CD47, streptavidin-HRP (panel SIRPα-V2-CD47)

binding result [1]: binds
EC50 (read off the curve) [2]: ~0.5 nM
EC50 (read off the curve) [3]: ~0.8 nM
EC50 (read off the curve) [4]: ~0.03 nM
EC50 (read off the curve) [5]: ~0.02 nM
EC50 (read off the curve) [6]: ~0.04 nM
IC50 (read off the curve) [7]: ~0.2 nM
IC50 (read off the curve) [8]: ~10 nM
IC50 (read off the curve) [9]: ~0.1 nM
IC50 (read off the curve) [10]: ~3 nM
Kd [11]: < 0.001 nM
koff [11]: < 1e-07 s⁻¹
B1: H7L4-G1 (antibody, human IgG1, kappa)
heavy: not shown
light: DIVLTQSPASLAVSPGQRATITCRASESVDSYGNSFMHWYQQKPGQPPKPLIYLASNLESGVPARFSGSGSGTDFTLTINPVEANDAANYYCQQNNEYPWTFGGGTKVEIKRTVAAPSVFIFPPSDEQLKSGTASVVCLLNNFYPREAKVQWKVDNALQSGNSQESVTEQDSKDSTYSLSSTLTLSKADYEKHKVYACEVTHQGLSSPVTKSFNRGEC
notes: Humanized antibody with wild type human IgG1 and kappa; also called H7L4-G1w

binding result [1]: binds
EC50 (read off the curve) [12]: ~3 nM
EC50 (read off the curve) [2]: ~0.4 nM
EC50 (read off the curve) [3]: ~0.6 nM
EC50 (read off the curve) [13]: ~0.6 nM
EC50 (read off the curve) [4]: ~0.03 nM
EC50 (read off the curve) [5]: ~0.02 nM
EC50 (read off the curve) [6]: ~0.04 nM
IC50 (read off the curve) [7]: ~0.1 nM
IC50 (read off the curve) [8]: ~7 nM
IC50 (read off the curve) [9]: ~0.2 nM
IC50 (read off the curve) [10]: ~3 nM
Kd [11]: < 0.001 nM
koff [11]: < 1e-07 s⁻¹
B2: H7L4-G1lala (antibody, human IgG1, kappa, L234A L235A)
heavy: not shown
light: B1 light
notes: also called humanized antibody H7L4

EC50 [14]: 0.13 nM
EC50 [15]: 0.196 nM
EC50 [16]: 8.76 nM
EC50 [17]: 1.08 nM
EC50 [18]: 3.65 nM
Kd [19]: 0.115 nM
koff [19]: 7.76e-05 s⁻¹
kon [19]: 674000 M⁻¹ s⁻¹
Kd [20]: 1.07 nM
koff [20]: 0.000601 s⁻¹
kon [20]: 561000 M⁻¹ s⁻¹
Kd [21]: 0.0137 nM
koff [21]: 2.36e-05 s⁻¹
kon [21]: 1.72e+06 M⁻¹ s⁻¹
Kd [22]: 1.23 nM
koff [22]: 0.000896 s⁻¹
kon [22]: 728000 M⁻¹ s⁻¹
IC50 (read off the curve) [23]: ~20 nM
IC50 (read off the curve) [24]: ~30 nM
B3: 18D5 (antibody, V domains shown)
VH: QVQLQQPGAELVRPGSSVKLSCKASGYTFTSYWVHWVKQRPIQGLEWIGNIDPSDSDTHYNQKFKDKASLTVDKSSSTAYMQLSSLTFEDSAVYYCVRGGTGTMAWFAYWGQGTLVTVSA
VL: DVVMTQTPLSLPVSLGDQASISCRSSQSLVHSYGNTYLYWYLQKPGQSPKLLIYRVSNRFSGVPDRFSGSGSGTDFTLKISRVEAEDLGVYFCFQGTHVPYTFGSGTKLEIK
